Blank lines part the entries; values can stand above or below the binder they belong to.
Assays:
[1] = target: T1, human chemokine receptor CCR7 (human, UniProt P32248 25-378); assay: flow cytometry titration, BHK cells expressing human CCR7
T1 construct: On CHO, BHK, R1610 and Chem-1 transfectants and, natively, on human PBMC and the leukemia lines JVM-13 and CLL-AAT; also called human CCR7; hCCR7
T1 sequence: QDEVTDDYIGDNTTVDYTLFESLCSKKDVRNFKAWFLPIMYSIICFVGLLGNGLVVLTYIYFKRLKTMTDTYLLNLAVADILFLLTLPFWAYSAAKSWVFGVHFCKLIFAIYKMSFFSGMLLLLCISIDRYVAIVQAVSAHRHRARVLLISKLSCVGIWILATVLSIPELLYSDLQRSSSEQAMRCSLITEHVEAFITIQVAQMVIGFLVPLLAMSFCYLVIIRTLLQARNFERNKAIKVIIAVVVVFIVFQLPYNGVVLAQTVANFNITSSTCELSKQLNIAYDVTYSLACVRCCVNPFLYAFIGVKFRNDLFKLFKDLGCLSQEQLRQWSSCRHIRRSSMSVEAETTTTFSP
Protocol: (§1) The affinity of IgG1 antibodies to human CCR7 was evaluated by measuring mean fluorescence value (MFI) of cells expressing CCR7 in the presence of varying concentration of antibody in question, upon staining of bound to the cells antibodies with a commercial anti-human antibody-PE conjugate. The data of such experiments are depicted in FIGS. 9, 10, and 11. In these experiments binding of some antibodies to parental cells or cells expressing mouse CCR7 was also quantitatively characterized by obtaining EC₅₀ value (a concentration of IgG1 at which half-maximum MFI is achieved) for each curve using the SoftMaxPro5 program.

human CCR9 = target: T2, human CCR9 (human, UniProt P51686 1-369); assay: FACS, R1610-human CCR9 cells
T2 construct: whole, on cells; R1610 cells
T2 sequence (looked up): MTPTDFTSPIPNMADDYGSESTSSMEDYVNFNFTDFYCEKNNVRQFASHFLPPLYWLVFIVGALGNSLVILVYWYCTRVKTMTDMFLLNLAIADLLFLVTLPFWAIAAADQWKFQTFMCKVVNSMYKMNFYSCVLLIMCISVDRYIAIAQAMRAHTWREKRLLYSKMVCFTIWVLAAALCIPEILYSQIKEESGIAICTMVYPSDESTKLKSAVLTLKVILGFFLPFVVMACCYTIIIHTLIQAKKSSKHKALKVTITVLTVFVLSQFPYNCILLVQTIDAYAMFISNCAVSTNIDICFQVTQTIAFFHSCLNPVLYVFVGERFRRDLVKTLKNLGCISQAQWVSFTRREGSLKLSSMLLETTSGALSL
Protocol: In more details, the cell staining procedure was: […] cell suspension in 10 μl FACS buffer (1×PBS, 2.0% FBS, 0.2% sodium azide) was mixed with 10 μl of 200 nM the corresponding anti-CCR7 MAB and incubated on ice for 30 min. Washing step—after the incubation 150 μl of FACS buffer was added to the cell sample, the samples were mixed gently by up-down pipetting the cell suspension. Then the samples were centrifuged at 1100 rpm for 5 minutes, and supernatants were removed. Washing step was repeated ones. Then 10 μl of anti-human PE-(Fab)2 form Jackson Immuno Research Lab. #709-116-098 diluted 40 times in FACS buffer were added to the cells and the cells were re-suspended by up-down pipetting. After 20 min. incubation on ice in dark the washing step was repeated twice. The washed cells were mixed with 100 μl of FIX buffer (0.5% Paraformaldehyde solution in PBS). Fixed samples were stored in dark on ice and analyzed by FACS on Guava PCA-96 flow cytometer. The fluorescent signals collected from individual cells were obtained using fluorescence Activated Cell Sorter (FACS).

[2] = target: T1, human chemokine receptor CCR7; assay: flow cytometry titration, cells expressing CCR7; before storage (unit from the axis, nM)
[3] = target: T1, human chemokine receptor CCR7; assay: flow cytometry, human CCR7 cells (summary table)
[4] = target: T1, human chemokine receptor CCR7; assay: flow cytometry titration, cells expressing CCR7; after 4.5 months at 4 C (unit from the axis, nM)
mouse CCR7 [5] = target: T3, mouse CCR7 (mouse, UniProt P47774 25-378); assay: flow cytometry, mouse CCR7 cells (summary table)
T3 construct: whole, on cells; On CHO-mouse CCR7 cells and on mouse splenocytes; also called mouse CCR7 ortholog
T3 sequence (looked up): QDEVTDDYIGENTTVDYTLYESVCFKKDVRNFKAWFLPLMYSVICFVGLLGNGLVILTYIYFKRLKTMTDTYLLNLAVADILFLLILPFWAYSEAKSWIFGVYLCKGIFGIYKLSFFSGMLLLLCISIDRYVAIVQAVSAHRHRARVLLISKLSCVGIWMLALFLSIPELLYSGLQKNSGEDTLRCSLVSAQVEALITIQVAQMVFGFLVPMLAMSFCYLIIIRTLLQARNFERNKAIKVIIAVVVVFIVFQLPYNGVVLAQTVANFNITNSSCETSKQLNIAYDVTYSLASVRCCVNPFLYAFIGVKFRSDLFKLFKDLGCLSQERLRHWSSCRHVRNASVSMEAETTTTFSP

[6] = target: T1, human chemokine receptor CCR7; assay: cell-based or functional assay
[7] = target: T1, human chemokine receptor CCR7; assay: flow cytometry titration, CCR7-expressing CHO cells; antibody not heat-treated
[8] = target: T1, human chemokine receptor CCR7; assay: flow cytometry titration, CHO-human CCR7 cells
Protocol: as §1

[9] = target: T1, human chemokine receptor CCR7; assay: flow cytometry titration, human CCR7-expressing CHO cells
mouse CCR7 [10] = target: T3, mouse CCR7; assay: flow cytometry titration, CHO cells expressing mouse CCR7
mouse CCR7 [11] = target: T3, mouse CCR7; assay: flow cytometry titration, CHO-mouse CCR7 cells
Protocol: as §1

[12] = target: T1, human chemokine receptor CCR7; assay: flow cytometry titration, CCR7-expressing CHO cells; antibody kept 12 h at 40 C

EC50 [1]: 3.8 nM
B1: MSM-R710 (fully human anti-human CCR7 antibody, IgG1) (antibody, V domains shown)
VH: EVQLLESGGGLVQPGGSLRLSCAASGFTFSNYTMHWVRQAPGKGLEWVSGIGPRSGRTYYADSVKGRFTISRDNSKNTLYLQMNSLRAEDTAVYYCARSYAYQYRGFDYWGQGTLVTVSS
VL: EIVLTQSPGTLSLSPGERATLSCRASQSVSSSYLAWYQQKPGQAPRLLIYGASSRATGIPDRFSGSGSGTDFTLTISRLEPEDFAVYYCQSSVTFGQGTKVEIKR
notes: IgG1 format
binding result (human CCR9): no binding (tested: 200 nM MAB mixed 1:1 with cells)

EC50 [2]: 2.47 nM
EC50 [3]: 4 nM
EC50 [4]: 2.06 nM
EC50 (mouse CCR7 [5]): 1 nM
IC50 of inhibition of Ca-flux induced by 15 nM CCL19, Chem-1 CCR7 human cells [6]: 67 nM
EC50 [7]: 3 nM
EC50 [8]: 0.7 nM
EC50 [9]: 3.7 nM
EC50 (mouse CCR7 [10]): 2.4 nM
EC50 (mouse CCR7 [11]): ~642 nM
EC50 [12]: 3.1 nM
B2: MSM-R735 (fully human anti-human CCR7 antibody, IgG1) (antibody)
heavy: not shown
light: EIVLTQSPGTLSLSPGERATLSCRASQSVSSSYLAWYQQKPGQAPRLLIYGASSRATGIPDRFSGSGSGTDFTLTISRLEPEDFAVYYCQQGSPVTFGQGTKVEIKRTVAAPSVFIFPPSDEQLKSGTASVVCLLNNFYPREAKVQWKVDNALQSGNSQESVTEQDSKDSTYSLSSTLTLSKADYEKHKVYACEVTHQGLSSPVTKSFNRGEC
notes: IgG1 format; also called R735 Human IgG1
binding result (human CCR9): no binding (tested: 200 nM MAB mixed 1:1 with cells)
EC50 of killing of JVM-13 cells with Fab-ZAP [6]: 19 nM
IC50 of decrease in cell viability with human Fab-ZAP, JVM-13 cells [6]: ~1.2 nM
